Changes are numbered by the printed parent chain.
B1: SEQ ID NO: 385: GAT polypeptide (protein)
chain: MIEVKPINAEDTYEIRHRILRPNQPLEACKYEADLLGGTFHLGGYYRGKLISIASFHQAEHPELEGQKQYQLRGMATLEGNREQKAGSTLIRHAEELLRKKGADLLWCNARTSASGYYKKLGFSEQGEVYDVPPIGPHILMYKKLT
modifications: 6_17C5
notes: GAT polypeptide
B2: SEQ ID NO: 269: GAT polypeptide (protein)
chain: B1 chain with A33T, F40L, G80E, N81Y, V132I, I135T
modifications: 10_12D7
notes: GAT polypeptide
B3: SEQ ID NO: 391: GAT polypeptide (protein)
chain: B1 chain with A33T, F40L, N81Y, H93Q, E128G, V132I, I135V, K144E
modifications: 6_19C8
notes: GAT polypeptide
B4: SEQ ID NO: 412: GAT polypeptide (protein)
chain: B1 chain with K30M, A33T, N81Y, E128G, V132I, I135V
modifications: 6_8H3
notes: GAT polypeptide
B5: SEQ ID NO: 416: GAT polypeptide (protein)
chain: B1 chain with A33T, N81Y, E128G, V132I
modifications: 7_2A10
notes: GAT polypeptide
B6: SEQ ID NO: 389: GAT polypeptide (protein)
chain: B1 chain with K30M, A33T, G37R, T39A, P62S, N81Y, V132I, I135V
modifications: 6_19B6
notes: GAT polypeptide
B7: SEQ ID NO: 404: GAT polypeptide (protein)
chain: B1 chain with K30M, A33T, G80E, N81Y, V132I, I135V
modifications: 6_3H2
notes: GAT polypeptide
B8: SEQ ID NO: 407: GAT polypeptide (protein)
chain: B1 chain with K30M, A33T, G80E, N81Y, V132I
modifications: 6_5D11
notes: GAT polypeptide
B9: SEQ ID NO: 398: GAT polypeptide (protein)
chain: B1 chain with K30M, A33T, P62S, E79D, G80E, N81Y, V132I
modifications: 6_22H9
notes: GAT polypeptide
B10: SEQ ID NO: 270: GAT polypeptide (protein)
chain: B1 chain with K30M, A33T, G37R, I51V, G80E, N81Y, E128G, V132I, I135V
modifications: 10_15F4
notes: GAT polypeptide
B11: SEQ ID NO: 271: GAT polypeptide (protein)
chain: B1 chain with A33T, N81Y, V132T, I135V
modifications: 10_17D1
notes: GAT polypeptide
B12: SEQ ID NO: 411: GAT polypeptide (protein)
chain: B1 chain with K30M, A33T, G37R, T39A, P62S, N81Y, E128G, V132I, I135V
modifications: 6_7D1
notes: GAT polypeptide
B13: SEQ ID NO: 393: GAT polypeptide (protein)
chain: B1 chain with E10G, A33T, P62S, N81Y, E128G, V132I, I135V
modifications: 6_20A9
notes: GAT polypeptide
B14: SEQ ID NO: 396: GAT polypeptide (protein)
chain: B1 chain with Q24R, K30M, A33T, E63G, Q67K, G80E, N81Y, E128G, V132I, I135V
modifications: 6_22C9
notes: GAT polypeptide
B15: SEQ ID NO: 410: GAT polypeptide (protein)
chain: B1 chain with T12A, A33T, P62S, N81Y, E128G, V132I, I135V
modifications: 6_6D5
notes: GAT polypeptide
B16: SEQ ID NO: 392: GAT polypeptide (protein)
chain: B1 chain with K30M, A33T, G37R, P62S, E63D, G80E, N81Y, V132I, I135V
modifications: 6_20A7
notes: GAT polypeptide
B17: SEQ ID NO: 403: GAT polypeptide (protein)
chain: B1 chain with K30M, A33T, P62S, N81Y, V132I, I135V
modifications: 6_3G3
notes: GAT polypeptide
B18: SEQ ID NO: 399: GAT polypeptide (protein)
chain: B1 chain with K30M, E32G, A33T, H61Q, N81Y, E128G, V132I, I135V
modifications: 6_23H3
notes: GAT polypeptide
B19: SEQ ID NO: 408: GAT polypeptide (protein)
chain: B1 chain with K30M, A33T, G80E, N81Y, Y130H, V132I, I135V
modifications: 6_5F11
notes: GAT polypeptide
B20: SEQ ID NO: 386: GAT polypeptide (protein)
chain: B1 chain with K30R, A33T, N81Y, T112I, V132I, I135V
modifications: 6_18C7
notes: GAT polypeptide
B21: SEQ ID NO: 387: GAT polypeptide (protein)
chain: B1 chain with H17X, K30M, A33T, N81Y, E128G, V132I, I135V
modifications: X: residue not identified in the source; ends and bridges not checked
notes: GAT polypeptide
B22: SEQ ID NO: 388: GAT polypeptide (protein)
chain: B1 chain with V4A, K30M, A33T, N81Y, V132I, I135T
modifications: 6_19A10
notes: GAT polypeptide
B23: SEQ ID NO: 402: GAT polypeptide (protein)
chain: B1 chain with V4I, K30M, A33T, N81Y, V132I, I135V
modifications: 6_3D6
notes: GAT polypeptide
B24: SEQ ID NO: 394: GAT polypeptide (protein)
chain: B1 chain with A33T, P62S, N81Y, V132I
modifications: 6_20H5
notes: GAT polypeptide
B25: SEQ ID NO: 400: GAT polypeptide (protein)
chain: B1 chain with K30M, A33T, P62S, N81Y, L97I, E128G, V132I, I135V
modifications: 6_23H7
notes: GAT polypeptide
B26: SEQ ID NO: 413: GAT polypeptide (protein)
chain: B1 chain with A33T, F40L, P62S, N81Y, V132I, I135V
modifications: 6_9G11
notes: GAT polypeptide
B27: SEQ ID NO: 390: GAT polypeptide (protein)
chain: B1 chain with A33T, N81Y, V132I
modifications: 6_19C3
notes: GAT polypeptide
B28: SEQ ID NO: 395: GAT polypeptide (protein)
chain: B1 chain with I19V, K30M, A33T, T39A, N81Y, I135V
modifications: 6_21F4
notes: GAT polypeptide
B29: SEQ ID NO: 415: GAT polypeptide (protein)
chain: B1 chain with K30M, A33T, G80E, N81Y, E128G, V132I
modifications: 7_1C4
notes: GAT polypeptide
B30: SEQ ID NO: 406: GAT polypeptide (protein)
chain: B1 chain with I19V, K30M, A33T, S52G, N81Y, K119E, E125G, V132I
modifications: 6_4B1
notes: GAT polypeptide
B31: SEQ ID NO: 401: GAT polypeptide (protein)
chain: B1 chain with I19V, K30M, A33T, Q69P, N81Y, V129I, V132I
modifications: 6_2H1
notes: GAT polypeptide
B32: SEQ ID NO: 397: GAT polypeptide (protein)
chain: B1 chain with K30M, A33T, G37E, P62S, N81Y, V132I, I135V
modifications: 6_22D9
notes: GAT polypeptide
B33: SEQ ID NO: 409: GAT polypeptide (protein)
chain: B1 chain with K30M, A33T, P62S, G80E, N81Y, T112I, E128G, V132I, I135V
modifications: 6_5G9
notes: GAT polypeptide
B34: SEQ ID NO: 405: GAT polypeptide (protein)
chain: B1 chain with K30M, A33T, N81Y, V132I, I135V
modifications: 6_4A10
notes: GAT polypeptide
B35: SEQ ID NO: 414: GAT polypeptide (protein)
chain: MIEVKPINAEDTYEIRHRILRPNQPLEACMYETDLLGGTFHLGGYYRGKLVCIASFHKAEHSELEGQKQYQLRGMATLDGYREQKAGSTLIRHAEELLRKKGADLLWCNARTSVSGYYEKLGFSEQGEVYDIPPVGPHILMYKKLT
modifications: 6F1
notes: GAT polypeptide

Test: Standard protocol for determination of kcat and KM (continuous spectrophotometric assay, Acetyl CoA hydrolysis at 235 nm)
Format: biochemical
Conditions: purified protein; about 23° C.; 20 mM HEPES pH 6.8, 10% ethylene glycol, 0.2 mM acetyl CoA
Procedure: KM was calculated from the initial reaction rates obtained from concentrations of glyphosate ranging from 0.125 to 10 mM, using the Lineweaver-Burke transformation of the Michaelis-Menten equation. kcat/KM was determined by dividing the value determined for kcat by the value determined for KM.
Using this methodology, kinetic parameters for a number of GAT polypeptides exemplified herein were determined. For example, the kcat, KM and kcat/KM for the GAT polypeptide corresponding to SEQ ID NO:445 have been determined to be 322 min^−1, 0.5 mM and 660 mM^−1 min^−1, respectively, using the assay conditions described above. The kcat, KM and kcat/KM for the GAT polypeptide corresponding to SEQ ID NO:457 have been determined to be 118 min^−1, 0.1 mM and 1184 mM^−1 min^−1, respectively, using the assay conditions described above. The kcat, KM and kcat/KM for the GAT polypeptide corresponding to SEQ ID NO:300 have been determined to be 296 min^−1, 0.65 mM and 456 mM^−1 min^−1, respectively, using the assay conditions described above. One of skill in the art can use these numbers to confirm that a GAT activity assay is generating kinetic parameters for a GAT suitable for comparison with the values given herein. For example, the conditions used to compare the activity of GATs should yield the same kinetic constants for SEQ ID NO: 300, 445 and 457 (within normal experimental variance) as those reported herein, when the conditions are used to compare a test GAT with the GAT polypeptides exemplified herein. Kinetic parameters for a number of GAT polypeptide variants were determined according to this methodology and are provided in Table 3.

Molecule | Kcat [s⁻¹]
B1 | 0.587
B2 | 1.29
B3 | 1.25
B4 | 0.745
B5 | 0.242
B6 | 0.398
B7 | 0.953
B8 | 0.253
B9 | 0.29
B10 | 0.627
B11 | 2.937
B12 | 0.328
B13 | 0.752
B14 | 0.79
B15 | 0.922
B16 | 0.673
B17 | 0.865
B18 | 0.732

Molecule | Kcat [s⁻¹]
B19 | 0.668
B20 | 0.537
B21 | 0.717
B22 | 1.45
B23 | 0.695
B24 | 0.325
B25 | 0.77
B26 | 1.31
B27 | 0.385
B28 | 0.405
B29 | 0.29
B30 | 0.45
B31 | 0.443
B32 | 0.732
B33 | 0.597
B34 | 0.917
B35 | 0.168

Same assay, conditions: purified protein; about 23° C.; pH 6.8; 0.2 mM acetyl CoA; glyphosate 0.125 to 10 mM

Molecule | Km [µM]
B1 | 1300
B2 | 1800
B3 | 2000
B4 | 1000
B5 | 800
B6 | 700
B7 | 1000
B8 | 1000
B9 | 1100
B10 | 1000
B11 | 2200
B12 | 500
B13 | 1300
B14 | 3200
B15 | 1000
B16 | 1000
B17 | 1000
B18 | 1100

Molecule | Km [µM]
B19 | 1900
B20 | 1200
B21 | 1200
B22 | 1900
B23 | 1000
B24 | 800
B25 | 1200
B26 | 1300
B27 | 1400
B28 | 700
B29 | 1100
B30 | 1000
B31 | 900
B32 | 1300
B33 | 1400
B34 | 1100
B35 | 1800

— patent US8008547B2, “Glyphosate-N-acetyltransferase (GAT) genes” (E.I. duPont de Nemours, priority 2000, dated 2011)
